Results: patent US20210079037A1, “LIGHT-SWITCHABLE POLYPEPTIDE AND USES THEREOF” (TECHNISCHE UNIVERSITÄT MÜNCHEN, priority 2017, published 2021)
Numbered stars: 1 amine (or outer) side, 2 acyl side, 3 side chain; on linkers, the order of the positions; unused ones are H or OH. Square brackets hold non-standard residues; d marks the D form. Caf = 4′-carboxyphenylazophenylalanine, O=C([C@H](Cc1ccc(/N=N/c2ccc(C(=O)[*:3])cc2)cc1)N[*:1])[*:2]

Biological target: mouse anti-6×His antibody alkaline phosphatase (AP) conjugate (Arigo Biolaboratories)
Test: ELISA, curve fit; ProtL^Caf337-ABD in a dilution series on HSA-coated plate, Ig-AP conjugate at 1:1000; ground state (trans-Caf)

Kd: 140 nM
B1: ProtL^Caf337-ABD (designed binder)
chain: MKEEVTIKVNLI[Caf]ADGKTQTAEFKGTFEEATAKAYANADLSAKENGEYTADLEDGGNTINIKFAGGAVDANSLAEAKVLANRELDKYGVSDYYKNLINNAKTVEGVKALIDEILAALP
